Laboratory results as given in paper PMC9482650, “Quantitative fragmentomics allow affinity mapping of interactomes” (Nature Communications, 2022).

How the values were obtained:
Assay in all cases: holdup assay
Parameters in all cases: key: below the threshold = too weak to quantify, mostly under pKd 3.1 to 4
Inadl_8, Q8NI35 = target: Inadl_8, Q8NI35
DLG1_2, Q12959 = target: DLG1_2, Q12959
SNX27, Q96L92 = target: SNX27, Q96L92
DVL3, Q92997 = target: T1, DVL3, Q92997
T1 sequence (Q92997 244-331, limits assumed, looked up): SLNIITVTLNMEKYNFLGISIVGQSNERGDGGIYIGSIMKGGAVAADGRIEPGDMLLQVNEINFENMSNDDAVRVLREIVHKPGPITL

APBA3_1, O96018 = target: T2, APBA3_1, O96018
T2 sequence (O96018 389-490, limits assumed, looked up): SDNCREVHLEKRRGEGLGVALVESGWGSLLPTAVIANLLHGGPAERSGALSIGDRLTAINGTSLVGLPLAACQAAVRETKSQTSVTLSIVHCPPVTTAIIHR

MAGI2_2, Q86UL8 = target: MAGI2_2, Q86UL8
Sequence of MAGI2_2, Q86UL8 (Q86UL8 410-522): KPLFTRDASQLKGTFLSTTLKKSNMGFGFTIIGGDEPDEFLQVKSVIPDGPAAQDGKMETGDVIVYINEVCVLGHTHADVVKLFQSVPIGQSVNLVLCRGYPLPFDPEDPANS

GRIP2_7, Q9C0E4 = target: GRIP2_7, Q9C0E4
Sequence of GRIP2_7, Q9C0E4 (Q9C0E4 934-1023): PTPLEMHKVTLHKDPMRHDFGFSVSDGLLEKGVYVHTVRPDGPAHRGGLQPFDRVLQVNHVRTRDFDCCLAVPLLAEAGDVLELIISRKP

Inadl_9, Q8NI35 = target: Inadl_9, Q8NI35
Sequence of Inadl_9, Q8NI35 (Q8NI35 1530-1615): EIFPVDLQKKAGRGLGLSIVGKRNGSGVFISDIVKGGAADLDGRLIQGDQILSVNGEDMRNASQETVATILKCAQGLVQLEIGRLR

DLG2_2, Q15700 = target: DLG2_2, Q15700
Sequence of DLG2_2, Q15700 (Q15700 189-283): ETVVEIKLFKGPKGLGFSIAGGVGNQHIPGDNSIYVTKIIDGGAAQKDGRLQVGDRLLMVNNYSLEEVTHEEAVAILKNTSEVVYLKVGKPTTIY

FRMPD2_1, Q68DX3 = target: FRMPD2_1, Q68DX3
Sequence of FRMPD2_1, Q68DX3 (Q68DX3 770-861): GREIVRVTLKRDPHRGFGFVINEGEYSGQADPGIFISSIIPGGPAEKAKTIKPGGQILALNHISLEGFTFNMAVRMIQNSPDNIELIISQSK

LAP2, Q96RT1 = target: LAP2, Q96RT1
Sequence of LAP2, Q96RT1 (Q96RT1 other isoform, or with tags, fused parts or gaps): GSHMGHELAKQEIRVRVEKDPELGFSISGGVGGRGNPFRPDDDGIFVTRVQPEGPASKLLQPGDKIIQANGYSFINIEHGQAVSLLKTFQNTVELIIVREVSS

MAST2, Q6P0Q8 = target: MAST2, Q6P0Q8
Sequence of MAST2, Q6P0Q8 (Q6P0Q8 1099-1202): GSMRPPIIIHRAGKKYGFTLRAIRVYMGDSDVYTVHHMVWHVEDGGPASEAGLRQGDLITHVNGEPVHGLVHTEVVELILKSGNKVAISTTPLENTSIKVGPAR

GRIP2_3, Q9C0E4 = target: GRIP2_3, Q9C0E4
Sequence of GRIP2_3, Q9C0E4 (Q9C0E4 238-339): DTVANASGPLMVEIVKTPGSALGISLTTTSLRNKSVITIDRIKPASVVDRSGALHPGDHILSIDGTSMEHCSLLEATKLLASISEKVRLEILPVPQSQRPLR

DLG5_1, Q8TDM6 = target: DLG5_1, Q8TDM6
Sequence of DLG5_1, Q8TDM6 (Q8TDM6 617-713): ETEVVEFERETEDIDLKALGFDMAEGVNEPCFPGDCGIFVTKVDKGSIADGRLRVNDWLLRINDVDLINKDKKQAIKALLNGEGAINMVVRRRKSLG

LDB3, O75112 = target: LDB3, O75112
Sequence of LDB3, O75112 (O75112 1-94): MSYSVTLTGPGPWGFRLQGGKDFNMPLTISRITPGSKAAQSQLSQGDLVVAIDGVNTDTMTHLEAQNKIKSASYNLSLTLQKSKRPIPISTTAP

MPP6, Q9NZW5 = target: T3, MPP6, Q9NZW5
T3 sequence (Q9NZW5 125-219, limits assumed, looked up): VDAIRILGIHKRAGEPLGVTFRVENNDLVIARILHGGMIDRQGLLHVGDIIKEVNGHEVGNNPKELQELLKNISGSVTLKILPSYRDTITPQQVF

GRIP2_6, Q9C0E4 = target: GRIP2_6, Q9C0E4
Sequence of GRIP2_6, Q9C0E4 (Q9C0E4 648-740): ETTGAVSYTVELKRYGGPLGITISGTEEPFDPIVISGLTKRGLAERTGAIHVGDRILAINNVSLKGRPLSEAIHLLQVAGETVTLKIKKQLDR

Inadl_2, Q8NI35 = target: Inadl_2, Q8NI35
Sequence of Inadl_2, Q8NI35 (Q8NI35 238-335): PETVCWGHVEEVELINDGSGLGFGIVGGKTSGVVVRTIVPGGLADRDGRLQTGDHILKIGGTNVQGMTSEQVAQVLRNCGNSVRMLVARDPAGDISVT

HTRA4, P83105 = target: T4, HTRA4, P83105
T4 sequence (P83105 378-476, limits assumed, looked up): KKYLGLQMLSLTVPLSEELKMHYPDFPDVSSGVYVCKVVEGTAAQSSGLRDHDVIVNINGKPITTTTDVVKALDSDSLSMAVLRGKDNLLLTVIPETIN

FRMPD3, Q5JV73 = target: FRMPD3, Q5JV73
Sequence of FRMPD3, Q5JV73 (Q5JV73 12-100): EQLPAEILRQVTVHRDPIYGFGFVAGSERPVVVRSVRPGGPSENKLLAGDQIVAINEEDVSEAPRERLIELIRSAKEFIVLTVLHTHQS

DFNB31_3, Q9P202 = target: T5, DFNB31_3, Q9P202
T5 sequence (Q9P202 811-907, limits assumed, looked up): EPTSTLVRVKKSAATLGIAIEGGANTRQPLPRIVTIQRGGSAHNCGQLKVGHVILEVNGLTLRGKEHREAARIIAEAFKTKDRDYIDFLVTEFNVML

RHPN1, Q8TCX5 = target: T6, RHPN1, Q8TCX5
T6 sequence (Q8TCX5 508-602, limits assumed, looked up): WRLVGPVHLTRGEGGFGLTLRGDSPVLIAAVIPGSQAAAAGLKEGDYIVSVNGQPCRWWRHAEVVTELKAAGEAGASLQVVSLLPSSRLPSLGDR

GRIP1_2, Q9Y3R0 = target: T7, GRIP1_2, Q9Y3R0
T7 sequence (Q9Y3R0 145-248, limits assumed, looked up): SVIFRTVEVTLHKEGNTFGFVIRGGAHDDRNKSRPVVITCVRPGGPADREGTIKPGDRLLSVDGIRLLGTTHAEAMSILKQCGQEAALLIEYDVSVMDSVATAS

IL16_4, Q14005 = target: IL16_4, Q14005
Sequence of IL16_4, Q14005 (Q14005 1229-1329): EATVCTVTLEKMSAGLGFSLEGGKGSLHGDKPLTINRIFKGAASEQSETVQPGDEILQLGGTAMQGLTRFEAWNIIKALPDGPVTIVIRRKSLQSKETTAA

ARHGAP21, Q5T5U3 = target: T8, ARHGAP21, Q5T5U3
T8 sequence (Q5T5U3 45-169, limits assumed, looked up): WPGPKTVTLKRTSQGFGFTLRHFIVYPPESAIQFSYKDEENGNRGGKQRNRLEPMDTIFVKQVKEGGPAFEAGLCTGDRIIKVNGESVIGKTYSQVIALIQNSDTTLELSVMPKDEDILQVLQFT

LRRC7, Q96NW7 = target: T9, LRRC7, Q96NW7
T9 sequence (Q96NW7 1440-1537, limits assumed, looked up): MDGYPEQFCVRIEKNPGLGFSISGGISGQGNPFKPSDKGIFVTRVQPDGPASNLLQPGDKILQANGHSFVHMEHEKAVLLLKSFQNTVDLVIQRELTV

SCRIB_1, Q14160 = target: SCRIB_1, Q14160
Sequence of SCRIB_1, Q14160 (Q14160 718-814): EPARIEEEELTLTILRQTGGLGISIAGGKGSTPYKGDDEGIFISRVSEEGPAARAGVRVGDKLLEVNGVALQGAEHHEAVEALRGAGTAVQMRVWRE

DLG4_3, P78352 = target: DLG4_3, P78352
Sequence of DLG4_3, P78352 (P78352 306-403): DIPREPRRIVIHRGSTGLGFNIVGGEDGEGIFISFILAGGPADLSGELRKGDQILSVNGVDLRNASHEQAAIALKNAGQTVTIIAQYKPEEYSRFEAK

[1] = plain residues with an end cap or a label only (N-terminal biotin on a linker: ttds)
[2] = plain residues with an end cap or a label only (N-terminal biotin on a linker: ahx)

Sequence of DLG1_2, Q12959 (Q12959 314-412): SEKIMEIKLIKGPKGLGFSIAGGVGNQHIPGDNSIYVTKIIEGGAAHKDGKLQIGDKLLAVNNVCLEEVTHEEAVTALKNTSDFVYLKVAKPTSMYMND
Sequence of Inadl_8, Q8NI35 (Q8NI35 1425-1530): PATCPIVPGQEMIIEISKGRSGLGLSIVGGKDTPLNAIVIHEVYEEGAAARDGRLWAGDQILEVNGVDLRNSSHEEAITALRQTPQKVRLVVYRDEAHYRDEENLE

SRSRRRETAL [HPV33-E6, P06427]
pKd (Inadl_8, Q8NI35; [1]): below the threshold
pKd (DLG1_2, Q12959; [1]): 5.14
pKd (SNX27, Q96L92; [1]): 4.91
pKd (DVL3, Q92997; [1]): below the threshold
pKd (APBA3_1, O96018; [1]): below the threshold
pKd (MAGI2_2, Q86UL8; [1]): 5.31
pKd (GRIP2_7, Q9C0E4; [1]): 3.42
pKd (Inadl_9, Q8NI35; [1]): below the threshold
pKd (DLG2_2, Q15700; [1]): 4.57
pKd (FRMPD2_1, Q68DX3; [1]): 3.54
pKd (LAP2, Q96RT1; [1]): below the threshold
pKd (MAST2, Q6P0Q8; [1]): 5.37
pKd (GRIP2_3, Q9C0E4; [1]): below the threshold
pKd (DLG5_1, Q8TDM6; [1]): below the threshold
pKd (LDB3, O75112; [1]): below the threshold
pKd (MPP6, Q9NZW5; [1]): below the threshold
pKd (GRIP2_6, Q9C0E4; [1]): below the threshold
pKd (Inadl_2, Q8NI35; [1]): below the threshold
pKd (HTRA4, P83105; [1]): below the threshold
pKd (FRMPD3, Q5JV73; [1]): below the threshold
pKd (DFNB31_3, Q9P202; [1]): below the threshold
pKd (RHPN1, Q8TCX5; [1]): 3.81
pKd (GRIP1_2, Q9Y3R0; [1]): below the threshold
pKd (IL16_4, Q14005; [1]): below the threshold
pKd (ARHGAP21, Q5T5U3; [1]): 3.45
pKd (LRRC7, Q96NW7; [1]): 3.68
pKd (SCRIB_1, Q14160; [1]): 5.66
pKd (DLG4_3, P78352; [1]): 5.32

PKMKLNETSF [SHKBP1, Q8TBC3]
pKd (Inadl_8, Q8NI35; [2]): below the threshold
pKd (DLG1_2, Q12959; [2]): below the threshold
pKd (SNX27, Q96L92; [2]): 5.54
pKd (DVL3, Q92997; [2]): below the threshold
pKd (APBA3_1, O96018; [2]): below the threshold
pKd (MAGI2_2, Q86UL8; [2]): below the threshold
pKd (GRIP2_7, Q9C0E4; [2]): below the threshold
pKd (Inadl_9, Q8NI35; [2]): below the threshold
pKd (DLG2_2, Q15700; [2]): below the threshold
pKd (FRMPD2_1, Q68DX3; [2]): below the threshold
pKd (LAP2, Q96RT1; [2]): below the threshold
pKd (MAST2, Q6P0Q8; [2]): 4.94
pKd (GRIP2_3, Q9C0E4; [2]): below the threshold
pKd (DLG5_1, Q8TDM6; [2]): below the threshold
pKd (LDB3, O75112; [2]): below the threshold
pKd (MPP6, Q9NZW5; [2]): below the threshold
pKd (GRIP2_6, Q9C0E4; [2]): below the threshold
pKd (Inadl_2, Q8NI35; [2]): below the threshold
pKd (HTRA4, P83105; [2]): below the threshold
pKd (FRMPD3, Q5JV73; [2]): below the threshold
pKd (DFNB31_3, Q9P202; [2]): below the threshold
pKd (RHPN1, Q8TCX5; [2]): 3.72
pKd (GRIP1_2, Q9Y3R0; [2]): below the threshold
pKd (IL16_4, Q14005; [2]): below the threshold
pKd (ARHGAP21, Q5T5U3; [2]): 3.5
pKd (LRRC7, Q96NW7; [2]): below the threshold
pKd (SCRIB_1, Q14160; [2]): 4.31
pKd (DLG4_3, P78352; [2]): below the threshold

FVETQHQTQV [FAT3, Q8TDW7]
pKd (Inadl_8, Q8NI35; [1]): below the threshold
pKd (DLG1_2, Q12959; [1]): 4.95
pKd (SNX27, Q96L92; [1]): 4.53
pKd (DVL3, Q92997; [1]): 3.65
pKd (APBA3_1, O96018; [1]): below the threshold
pKd (MAGI2_2, Q86UL8; [1]): 4.02
pKd (GRIP2_7, Q9C0E4; [1]): 3.82
pKd (Inadl_9, Q8NI35; [1]): 3.61
pKd (DLG2_2, Q15700; [1]): 4.5
pKd (FRMPD2_1, Q68DX3; [1]): below the threshold
pKd (LAP2, Q96RT1; [1]): 3.65
pKd (MAST2, Q6P0Q8; [1]): 5.39
pKd (GRIP2_3, Q9C0E4; [1]): below the threshold
pKd (DLG5_1, Q8TDM6; [1]): below the threshold
pKd (LDB3, O75112; [1]): below the threshold
pKd (MPP6, Q9NZW5; [1]): below the threshold
pKd (GRIP2_6, Q9C0E4; [1]): below the threshold
pKd (Inadl_2, Q8NI35; [1]): 3.56
pKd (HTRA4, P83105; [1]): below the threshold
pKd (FRMPD3, Q5JV73; [1]): below the threshold
pKd (DFNB31_3, Q9P202; [1]): below the threshold
pKd (RHPN1, Q8TCX5; [1]): 4.32
pKd (GRIP1_2, Q9Y3R0; [1]): 3.51
pKd (IL16_4, Q14005; [1]): below the threshold
pKd (ARHGAP21, Q5T5U3; [1]): below the threshold
pKd (LRRC7, Q96NW7; [1]): below the threshold
pKd (SCRIB_1, Q14160; [1]): below the threshold
pKd (DLG4_3, P78352; [1]): below the threshold

YNSFLSVTTV [PDZRN3, Q9UPQ7]
pKd (Inadl_8, Q8NI35; [2]): 4.3
pKd (DLG1_2, Q12959; [2]): 4.19
pKd (SNX27, Q96L92; [2]): 4.49
pKd (DVL3, Q92997; [2]): below the threshold
pKd (APBA3_1, O96018; [2]): below the threshold
pKd (MAGI2_2, Q86UL8; [2]): 3.95
pKd (GRIP2_7, Q9C0E4; [2]): below the threshold
pKd (Inadl_9, Q8NI35; [2]): below the threshold
pKd (DLG2_2, Q15700; [2]): 3.98
pKd (FRMPD2_1, Q68DX3; [2]): 3.54
pKd (LAP2, Q96RT1; [2]): below the threshold
pKd (MAST2, Q6P0Q8; [2]): 4.46
pKd (GRIP2_3, Q9C0E4; [2]): below the threshold
pKd (DLG5_1, Q8TDM6; [2]): below the threshold
pKd (LDB3, O75112; [2]): below the threshold
pKd (MPP6, Q9NZW5; [2]): below the threshold
pKd (GRIP2_6, Q9C0E4; [2]): below the threshold
pKd (Inadl_2, Q8NI35; [2]): below the threshold
pKd (HTRA4, P83105; [2]): 4.2
pKd (FRMPD3, Q5JV73; [2]): below the threshold
pKd (DFNB31_3, Q9P202; [2]): 3.51
pKd (RHPN1, Q8TCX5; [2]): 4.4
pKd (GRIP1_2, Q9Y3R0; [2]): below the threshold
pKd (IL16_4, Q14005; [2]): below the threshold
pKd (ARHGAP21, Q5T5U3; [2]): below the threshold
pKd (LRRC7, Q96NW7; [2]): below the threshold
pKd (SCRIB_1, Q14160; [2]): 3.62
pKd (DLG4_3, P78352; [2]): below the threshold
